Ends that are not written are not given here.
Legend:
RAMP3 = target: T1, RAMP3 (Homo sapiens, UniProt O60896); assay: RAMP-FITC fluorescence anisotropy coreceptor binding assay (RAMP3); conditions: fluorescence anisotropy of RAMP-FITC, duplicate assays, FIG. 3 and 4
T1 sequence (O60896 24-148): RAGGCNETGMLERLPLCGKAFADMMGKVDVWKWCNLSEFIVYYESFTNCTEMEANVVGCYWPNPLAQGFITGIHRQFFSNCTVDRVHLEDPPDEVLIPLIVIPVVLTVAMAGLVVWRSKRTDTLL
Experimental: (§1) Purified monoPEGylated human amylin was assayed for RAMP2 and RAMP3 coreceptor binding interaction.
(§2) RAMP (receptor activity modifying protein) was labeled with fluorescein isothiocianate for 1 h at 4° C. in PBS ([…]) pH 7.4, and purified by size exclusion chromatography (SEC) in Sepharose G25 (agarose-based chromatography media, provided by the US company GE HealthCare) using the same buffer. Labelling was confirmed by UV absorbance measurements at A280 and A490, allowing estimation of coupling efficiency, relying on about 0.5 fluorescein/RAMP molecule.

RAMP2 = RAMP2 (Homo sapiens, UniProt O60895); assay: RAMP-FITC fluorescence anisotropy coreceptor binding assay (RAMP2); conditions: fluorescence anisotropy of RAMP-FITC, duplicate assays, FIG. 3 and 4
Chain of RAMP2 (O60895 43-175, species assumed): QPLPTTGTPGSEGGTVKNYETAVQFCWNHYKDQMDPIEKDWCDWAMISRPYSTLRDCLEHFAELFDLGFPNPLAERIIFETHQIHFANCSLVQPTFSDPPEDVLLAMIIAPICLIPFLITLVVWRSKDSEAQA
Experimental: as §1, §2

[1] = Pharmacokinetics in swiss mice, plasma human amylin by ELISA; format: in vivo; conditions: 10 μg peptide in 100 uL saline, FIG. 6
Experimental: The pharmacokinetics of the monoPEGylated human amylin product were characterized in vivo in swiss mice. Mice were housed in a temperature-controlled room with a light-dark cycle of 12 h. Water and food were available ad libitum. Two groups were formed, control (free human amylin, not PEGylated) and PEGylated amylin. Animals received 100 uL of saline containing 10 μg of human amylin peptides, either free human amylin or purified monoPEGylated human amylin. Blood was collected retro-orbitally from mice (n=3 mice for each time interval), and the plasma was subjected to ELISA assay for human amylin as provided by the manufacturer (Millipore, Cat Number EZHA-52K—http://www.millipore.com/catalogue/item/ezha-52k).

[2] = Amyloid aggregation assay with thioflavin T (ThT); format: physicochemical; conditions: PBS pH 7.4, 37° C.
Experimental: Purified monoPEGylated human amylin of example 1 was re-suspended in DMSO and diluted to PBS pH 7.4 and allowed to incubate at 37° C. Samples were evaluated for amyloid aggregates by using the amyloid chromogenic probe thioflavin T (ThT).

| Substance | apparent binding affinity for coreceptor RAMP3 (RAMP3) | apparent binding affinity for coreceptor RAMP2 (RAMP2) | plasma decay / duration of stability in plasma [1] | amyloid aggregation (ThT) ([2]; 3 days, FIG. 5) | amyloid aggregation (ThT) ([2]; day 7, FIG. 5) |
| --- | --- | --- | --- | --- | --- |
| HEWL: unrelated protein hen egg white lisozyme used as a control for non-specific binding | non-specific binding | non-specific binding | – | – | – |
| free human amylin: 37-aminoacid amyloid polypeptide of the Langerhans islets, CAS RN: 106602-62-4; not PEGylated control (KCNTATCATQRLANFLVHSSNNFGAILSSTNVGSNTY; not fully specified (C-terminus, bridges); cysteine pairing not given here) | – | – | fast plasma decay | almost all free human amylin was aggregated in amyloid form | – |
| monoPEGylated human amylin: monoconjugate of human amylin and mPEG, purified by C18 reversed phase, peak at 9 Kda (example 1) (KCNTATCATQRLANFLVHSSNNFGAILSSTNVGSNTY; not fully specified (C-terminus, bridges); cysteine pairing not given here; also: mono-mPEG conjugate, site not given here; UniProt P10997 34-70, looked up) | – | – | longer duration of stability in plasma | – | no signs of aggregation |

Source: patent US20160331811A1, “NON-AGGLOMERATING BIOCONJUGATES OF AMYLIN-MIMETIC COMPOUNDS AND POLYETHYLENEGLYCOL” (UNIVERSIDADE FEDERAL DO RIO DE JANEIRO, priority 2013, published 2016)
